According to the supplement of paper PMC9112550, “Optimization of the antimicrobial peptide Bac7 by deep mutational scanning” (BMC Biology, 2022):

tested on: Escherichia coli TOP10; assay: shrunken log2 fold change of peptide-encoding DNA abundance (4.5 h post-induction vs induction); higher = less antimicrobial activity (less host growth inhibition); conditions: time post-induction: 4.5 h; library: site-saturation at positions 5, 18, 19, 20
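Note: peptides expressed intracellularly from a pBAD plasmid library in pooled LB shake-flask culture, induced with 0.3% L-arabinose, DNA abundance read by NGS, three biological replicates, DESeq2 with apeglm shrinkage.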

Row | Sequence | shrunken log2 fold change
1 | RRIRIRPPRLPRPRPRPLDMPRP | -0.285
2 | RRIRQRPPRLPRPRPRPAHVPRP | -0.139
3 | RRIRERPPRLPRPRPRPWGAPRP | 0.165
4 | RRIRARPPRLPRPRPRPAILPRP | -0.087
5 | RRIRQRPPRLPRPRPRPFWSPRP | -0.00402
6 | RRIRIRPPRLPRPRPRPCKQPRP | -0.0506
7 | RRIRRRPPRLPRPRPRPNMGPRP | -0.108
8 | RRIRRRPPRLPRPRPRPTSQPRP | 0.249
9 | RRIRNRPPRLPRPRPRPPKPPRP | 0.145
10 | RRIRMRPPRLPRPRPRPPSSPRP | -0.0366
11 | RRIRDRPPRLPRPRPRPWRSPRP | 0.105
12 | RRIRGRPPRLPRPRPRPQTMPRP | 0.672
13 | RRIRTRPPRLPRPRPRPESPPRP | 0.305
14 | RRIRARPPRLPRPRPRPQIEPRP | 0.234
15 | RRIRERPPRLPRPRPRPNLIPRP | -0.421
16 | RRIRFRPPRLPRPRPRPNRKPRP | -0.173
17 | RRIRHRPPRLPRPRPRPCWHPRP | -0.112
18 | RRIRDRPPRLPRPRPRPDSQPRP | -0.0289
19 | RRIRWRPPRLPRPRPRPLPWPRP | 0.244
20 | RRIRGRPPRLPRPRPRPKYEPRP | 0.56
21 | RRIRERPPRLPRPRPRPIKNPRP | -1.13
22 | RRIRQRPPRLPRPRPRPWVVPRP | 0.0305
23 | RRIRDRPPRLPRPRPRPWKCPRP | 0.118
24 | RRIRMRPPRLPRPRPRPQEMPRP | -0.0105
25 | RRIRTRPPRLPRPRPRPPQVPRP | -0.0388

Row | Sequence | shrunken log2 fold change
26 | RRIRQRPPRLPRPRPRPDIRPRP | -0.154
27 | RRIRYRPPRLPRPRPRPGCLPRP | 1.79
28 | RRIRNRPPRLPRPRPRPYDPPRP | -0.00192
29 | RRIRARPPRLPRPRPRPTYCPRP | -0.119
30 | RRIRDRPPRLPRPRPRPGDKPRP | 0.088
31 | RRIRSRPPRLPRPRPRPRKDPRP | 0.271
32 | RRIRVRPPRLPRPRPRPFAIPRP | -0.765
33 | RRIRPRPPRLPRPRPRPFMVPRP | -0.478
34 | RRIRLRPPRLPRPRPRPVMWPRP | 0.283
35 | RRIRGRPPRLPRPRPRPDVNPRP | 0.245
36 | RRIRCRPPRLPRPRPRPTVPPRP | 0.247
37 | RRIRIRPPRLPRPRPRPKTYPRP | -0.879
38 | RRIRNRPPRLPRPRPRPYLCPRP | -0.0174
39 | RRIRHRPPRLPRPRPRPALAPRP | 0.24
40 | RRIRGRPPRLPRPRPRPIEMPRP | 0.0736
41 | RRIRSRPPRLPRPRPRPKHVPRP | -0.183
42 | RRIRSRPPRLPRPRPRPGNPPRP | 0.0113
43 | RRIRYRPPRLPRPRPRPTGGPRP | -0.0407
44 | RRIRQRPPRLPRPRPRPPCHPRP | 0.0591
45 | RRIRARPPRLPRPRPRPLYHPRP | 0.149
46 | RRIRYRPPRLPRPRPRPQKWPRP | -0.16
47 | RRIRCRPPRLPRPRPRPLVHPRP | -0.075
48 | RRIRNRPPRLPRPRPRPRHSPRP | -0.424
49 | RRIRKRPPRLPRPRPRPGVVPRP | 0.755
50 | RRIRARPPRLPRPRPRPCCRPRP | 0.406

Row | Sequence | shrunken log2 fold change
51 | RRIRSRPPRLPRPRPRPNPQPRP | 0.126
52 | RRIRCRPPRLPRPRPRPLQIPRP | -0.213
53 | RRIRIRPPRLPRPRPRPIIPPRP | -0.072
54 | RRIRERPPRLPRPRPRPQSEPRP | -0.000579
55 | RRIRDRPPRLPRPRPRPIRMPRP | -0.0588
56 | RRIRLRPPRLPRPRPRPMLNPRP | -0.423
57 | RRIRRRPPRLPRPRPRPMELPRP | 0.212
58 | RRIRERPPRLPRPRPRPYQHPRP | -0.106
59 | RRIRYRPPRLPRPRPRPCPIPRP | 0.0143
60 | RRIRHRPPRLPRPRPRPDWQPRP | 0.00196
61 | RRIRPRPPRLPRPRPRPSASPRP | 2.33
62 | RRIRLRPPRLPRPRPRPWLPPRP | -0.464
63 | RRIRQRPPRLPRPRPRPHLMPRP | 0.106
64 | RRIRHRPPRLPRPRPRPANEPRP | 0.0508
65 | RRIRSRPPRLPRPRPRPQDQPRP | -0.0695
66 | RRIRFRPPRLPRPRPRPTDFPRP | -0.302
67 | RRIRMRPPRLPRPRPRPDVPPRP | 0.323
68 | RRIRCRPPRLPRPRPRPTKIPRP | 0.0473
69 | RRIRMRPPRLPRPRPRPIIVPRP | -0.0119
70 | RRIRDRPPRLPRPRPRPTSAPRP | 0.418
71 | RRIRKRPPRLPRPRPRPNTTPRP | -0.0509
72 | RRIRARPPRLPRPRPRPGAQPRP | 0.92
73 | RRIRMRPPRLPRPRPRPRVRPRP | 0.921
74 | RRIRVRPPRLPRPRPRPGISPRP | -0.49
75 | RRIRNRPPRLPRPRPRPHWTPRP | 0.0333
